Laboratory results taken from IntAct's records for PubMed 16799563.

B1: Mediator of RNA polymerase II transcription subunit 15 (Homo sapiens), Q96RN5 (parent)
chain: MDVSGQETDWRSTAFRQKLVSQIEDAMRKAGVAHSKSSKDMESHVFLKAKTRDEYLSLVARLIIHFRDIHNKKSQASVSDPMNALQSLTGGPAAGAAGIGMPPRGPGQSLGGMGSLGAMGQPMSLSGQPPPGTSGMAPHSMAVVSTATPQTQLQLQQVALQQQQQQQQFQQQQQAALQQQQQQQQQQQFQAQQSAMQQQFQAVVQQQQQLQQQQQQQQHLIKLHHQNQQQIQQQQQQLQRIAQLQLQQQQQQQQQQQQQQQQALQAQPPIQQPPMQQPQPPPSQALPQQLQQMHHTQHHQPPPQPQQPPVAQNQPSQLPPQSQTQPLVSQAQALPGQMLYTQPPLKFVRAPMVVQQPPVQPQVQQQQTAVQTAQAAQMVAPGVQMITEALAQGGMHIRARFPPTTAVSAIPSSSIPLGRQPMAQVSQSSLPMLSSPSPGQQVQTPQSMPPPPQPSPQPGQPSSQPNSNVSSGPAPSPSSFLPSPSPQPSQSPVTARTPQNFSVPSPGPLNTPVNPSSVMSPAGSSQAEEQQYLDKLKQLSKYIEPLRRMINKIDKNEDRKKDLSKMKSLLDILTDPSKRCPLKTLQKCEIALEKLKNDMAVPTPPPPPVPPTKQQYLCQPLLDAVLANIRSPVFNHSLYRTFVPAMTAIHGPPITAPVVCTRKRRLEDDERQSIPSVLQGEVARLDPKFLVNLDPSHCSNNGTVHLICKLDDKDLPSVPPLELSVPADYPAQSPLWIDRQWQYDANPFLQSVHRCMTSRLLQLPDKHSVTALLNTWAQSVHQACLSAA
partner: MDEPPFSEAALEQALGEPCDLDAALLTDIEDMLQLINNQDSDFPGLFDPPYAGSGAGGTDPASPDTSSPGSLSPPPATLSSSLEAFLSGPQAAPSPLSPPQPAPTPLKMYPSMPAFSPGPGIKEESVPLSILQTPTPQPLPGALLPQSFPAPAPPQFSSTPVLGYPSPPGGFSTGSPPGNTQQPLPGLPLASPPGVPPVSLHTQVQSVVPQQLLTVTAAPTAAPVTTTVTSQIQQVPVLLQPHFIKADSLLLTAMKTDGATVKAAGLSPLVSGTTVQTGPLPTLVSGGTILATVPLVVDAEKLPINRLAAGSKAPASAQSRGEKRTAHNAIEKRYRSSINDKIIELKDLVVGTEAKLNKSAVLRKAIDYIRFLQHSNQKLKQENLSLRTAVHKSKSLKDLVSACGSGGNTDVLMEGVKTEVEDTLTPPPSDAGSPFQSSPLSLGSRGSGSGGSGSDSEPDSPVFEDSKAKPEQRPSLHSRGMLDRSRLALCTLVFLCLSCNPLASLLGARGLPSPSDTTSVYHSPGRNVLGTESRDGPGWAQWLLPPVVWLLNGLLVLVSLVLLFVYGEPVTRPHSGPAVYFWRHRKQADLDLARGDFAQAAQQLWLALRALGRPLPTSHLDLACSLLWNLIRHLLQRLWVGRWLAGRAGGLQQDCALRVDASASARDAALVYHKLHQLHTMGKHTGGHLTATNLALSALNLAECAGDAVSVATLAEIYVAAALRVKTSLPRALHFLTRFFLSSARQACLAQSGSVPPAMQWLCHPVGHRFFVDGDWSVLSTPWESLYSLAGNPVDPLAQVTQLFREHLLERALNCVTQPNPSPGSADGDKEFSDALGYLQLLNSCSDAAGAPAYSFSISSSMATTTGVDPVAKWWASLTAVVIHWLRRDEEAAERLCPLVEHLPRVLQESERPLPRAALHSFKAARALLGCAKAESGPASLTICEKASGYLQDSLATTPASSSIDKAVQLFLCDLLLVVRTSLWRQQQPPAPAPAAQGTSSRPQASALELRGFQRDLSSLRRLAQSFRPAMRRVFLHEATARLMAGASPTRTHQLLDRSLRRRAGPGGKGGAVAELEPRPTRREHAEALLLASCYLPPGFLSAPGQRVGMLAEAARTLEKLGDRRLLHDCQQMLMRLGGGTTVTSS

Variants of: B1
Conditions: with SREBF1, P36956-1

| effect of a mutation on the interaction | Variant |
| --- | --- |
| disrupting interaction strength | E42A |
| disrupting interaction strength | L58D |
| disrupting interaction strength | A60D |
